# From US20250276073A1 (Bicycle, published 2025)
# Starred links: 1 amine or outer side, 2 acyl side, 3 side chain; linkers in the order of their positions; H or OH if unused. Positions of bridges follow the written chain, without caps; N, C: chain ends. Non-standard residues stand in square brackets, D forms with d. No end group written: not given here. TATB = O=C(C[*:1])N1CN(C(=O)C[*:2])CN(C(=O)C[*:3])C1; Gla = N[C@@H](CC(C(=O)O)C(=O)O)C(=O)O; Val(3-OH) = CC(C)(O)[C@H](N)C(=O)O; Hyp = O=C(O)[C@@H]1C[C@@H](O)CN1; Tle = CC(C)(C)[C@H](N)C(=O)O
# B1: BCY23217 (peptide)
# peptide: Ac-CP[Hyp][Gla]AYLGC[Tle]SYCEPW-NH2
# modifications: linker 1-9-13 via TATB
# SMILES: CC(=O)N[C@H]1CSCC(=O)N2CN3CN(C2)C(=O)CSC[C@@H](C(=O)N[C@@H](CCC(=O)O)C(=O)N2CCC[C@H]2C(=O)N[C@@H](Cc2c[nH]c4ccccc24)C(N)=O)NC(=O)[C@H](Cc2ccc(O)cc2)NC(=O)[C@H](CO)NC(=O)[C@H](C(C)(C)C)NC(=O)[C@H](CSCC3=O)NC(=O)CNC(=O)[C@H](CC(C)C)NC(=O)[C@H](Cc2ccc(O)cc2)NC(=O)[C@H](C)NC(=O)[C@H](CC(C(=O)O)C(=O)O)NC(=O)[C@@H]2C[C@@H](O)CN2C(=O)[C@@H]2CCCN2C1=O
# notes: Bicyclic peptide
# B2: BCY23231 (peptide)
# peptide: CPXDAYLGCXSYCXPW
# modifications: CP[HyP]DAYLGC[tBuGly]SYC[Gla]PW: HyP at 3, tBuGly at 10, Gla at 14; N-terminal acetyl; C-terminal CONH2; Cys 1, 9, 13 bonded to TATB scaffold
# notes: Bicyclic peptide
# B3: BCY23188 (peptide)
# peptide: CPXDAXLGCXSYCEPW
# modifications: CP[HyP]DA[hTyr]LGC[tBuGly]SYCEPW: HyP at 3, hTyr at 6, tBuGly at 10; N-terminal acetyl; C-terminal CONH2; Cys 1, 9, 13 bonded to TATB scaffold
# notes: Bicyclic peptide
# B4: BCY23210 (peptide)
# peptide: CPXDAYLGCXSYCEPX
# modifications: CP[HyP]DAYLGC[tBuGly]SYCEP[pCoPhe]: HyP at 3, tBuGly at 10, pCoPhe at 16; N-terminal acetyl; C-terminal CONH2; Cys 1, 9, 13 bonded to TATB scaffold
# notes: Bicyclic peptide
# B5: BCY23515 (peptide)
# peptide: Ac-CP[Hyp]DAYLGC[Val(3-OH)]SYCEPW-NH2
# modifications: linker 1-9-13 via TATB
# SMILES: CC(=O)N[C@H]1CSCC(=O)N2CN3CN(C2)C(=O)CSC[C@@H](C(=O)N[C@@H](CCC(=O)O)C(=O)N2CCC[C@H]2C(=O)N[C@@H](Cc2c[nH]c4ccccc24)C(N)=O)NC(=O)[C@H](Cc2ccc(O)cc2)NC(=O)[C@H](CO)NC(=O)[C@H](C(C)(C)O)NC(=O)[C@H](CSCC3=O)NC(=O)CNC(=O)[C@H](CC(C)C)NC(=O)[C@H](Cc2ccc(O)cc2)NC(=O)[C@H](C)NC(=O)[C@H](CC(=O)O)NC(=O)[C@@H]2C[C@@H](O)CN2C(=O)[C@@H]2CCCN2C1=O
# notes: Bicyclic peptide
# B6: BCY23205 (peptide)
# peptide: CPXDAYLGCXSYCEXW
# modifications: CP[HyP]DAYLGC[tBuGly]SYCE[Oxa]W: HyP at 3, tBuGly at 10, Oxa at 15; N-terminal acetyl; C-terminal CONH2; Cys 1, 9, 13 bonded to TATB scaffold
# notes: Bicyclic peptide
# B7: BCY23184 (peptide)
# peptide: CPXDAYLGCXSYCEPW
# modifications: CP[Cis-HyP]DAYLGC[tBuGly]SYCEPW: Cis-HyP at 3, tBuGly at 10; N-terminal acetyl; C-terminal CONH2; Cys 1, 9, 13 bonded to TATB scaffold
# notes: Bicyclic peptide
# B8: BCY23207 (peptide)
# peptide: CPXDAYLGCXSYCEPY
# modifications: CP[HyP]DAYLGC[tBuGly]SYCEPY: HyP at 3, tBuGly at 10; N-terminal acetyl; C-terminal CONH2; Cys 1, 9, 13 bonded to TATB scaffold
# notes: Bicyclic peptide
# B9: BCY23222 (peptide)
# peptide: Ac-CP[Hyp]DAYNGC[Tle]SYCEPW-NH2
# modifications: linker 1-9-13 via TATB
# SMILES: CC(=O)N[C@H]1CSCC(=O)N2CN3CN(C2)C(=O)CSC[C@@H](C(=O)N[C@@H](CCC(=O)O)C(=O)N2CCC[C@H]2C(=O)N[C@@H](Cc2c[nH]c4ccccc24)C(N)=O)NC(=O)[C@H](Cc2ccc(O)cc2)NC(=O)[C@H](CO)NC(=O)[C@H](C(C)(C)C)NC(=O)[C@H](CSCC3=O)NC(=O)CNC(=O)[C@H](CC(N)=O)NC(=O)[C@H](Cc2ccc(O)cc2)NC(=O)[C@H](C)NC(=O)[C@H](CC(=O)O)NC(=O)[C@@H]2C[C@@H](O)CN2C(=O)[C@@H]2CCCN2C1=O
# notes: Bicyclic peptide
# B10: BCY23221 (peptide)
# peptide: Ac-CP[Hyp]DAYEGC[Tle]SYCEPW-NH2
# modifications: linker 1-9-13 via TATB
# SMILES: CC(=O)N[C@H]1CSCC(=O)N2CN3CN(C2)C(=O)CSC[C@@H](C(=O)N[C@@H](CCC(=O)O)C(=O)N2CCC[C@H]2C(=O)N[C@@H](Cc2c[nH]c4ccccc24)C(N)=O)NC(=O)[C@H](Cc2ccc(O)cc2)NC(=O)[C@H](CO)NC(=O)[C@H](C(C)(C)C)NC(=O)[C@H](CSCC3=O)NC(=O)CNC(=O)[C@H](CCC(=O)O)NC(=O)[C@H](Cc2ccc(O)cc2)NC(=O)[C@H](C)NC(=O)[C@H](CC(=O)O)NC(=O)[C@@H]2C[C@@H](O)CN2C(=O)[C@@H]2CCCN2C1=O
# notes: Bicyclic peptide
# B11: BCY23223 (peptide)
# peptide: CP[Hyp]DAYQGC[Tle]SYCEPW-NH2
# modifications: linker 1-9-13 via TATB; not fully specified (N-terminus); printed as CP[HyP]DAYQGC[tBuGly]SYCEPW
# notes: Bicyclic peptide
# B12: BCY23216 (peptide)
# peptide: Ac-CP[Hyp]EAYLGC[Tle]SYCEPW-NH2
# modifications: linker 1-9-13 via TATB
# SMILES: CC(=O)N[C@H]1CSCC(=O)N2CN3CN(C2)C(=O)CSC[C@@H](C(=O)N[C@@H](CCC(=O)O)C(=O)N2CCC[C@H]2C(=O)N[C@@H](Cc2c[nH]c4ccccc24)C(N)=O)NC(=O)[C@H](Cc2ccc(O)cc2)NC(=O)[C@H](CO)NC(=O)[C@H](C(C)(C)C)NC(=O)[C@H](CSCC3=O)NC(=O)CNC(=O)[C@H](CC(C)C)NC(=O)[C@H](Cc2ccc(O)cc2)NC(=O)[C@H](C)NC(=O)[C@H](CCC(=O)O)NC(=O)[C@@H]2C[C@@H](O)CN2C(=O)[C@@H]2CCCN2C1=O
# notes: Bicyclic peptide
# B13: BCY23218 (peptide)
# peptide: Ac-CP[Hyp]DAYSGC[Tle]SYCEPW-NH2
# modifications: linker 1-9-13 via TATB
# SMILES: CC(=O)N[C@H]1CSCC(=O)N2CN3CN(C2)C(=O)CSC[C@@H](C(=O)N[C@@H](CCC(=O)O)C(=O)N2CCC[C@H]2C(=O)N[C@@H](Cc2c[nH]c4ccccc24)C(N)=O)NC(=O)[C@H](Cc2ccc(O)cc2)NC(=O)[C@H](CO)NC(=O)[C@H](C(C)(C)C)NC(=O)[C@H](CSCC3=O)NC(=O)CNC(=O)[C@H](CO)NC(=O)[C@H](Cc2ccc(O)cc2)NC(=O)[C@H](C)NC(=O)[C@H](CC(=O)O)NC(=O)[C@@H]2C[C@@H](O)CN2C(=O)[C@@H]2CCCN2C1=O
# notes: Bicyclic peptide
# B14: BCY23220 (peptide)
# peptide: Ac-CP[Hyp]DAYDGC[Tle]SYCEPW-NH2
# modifications: linker 1-9-13 via TATB
# SMILES: CC(=O)N[C@H]1CSCC(=O)N2CN3CN(C2)C(=O)CSC[C@@H](C(=O)N[C@@H](CCC(=O)O)C(=O)N2CCC[C@H]2C(=O)N[C@@H](Cc2c[nH]c4ccccc24)C(N)=O)NC(=O)[C@H](Cc2ccc(O)cc2)NC(=O)[C@H](CO)NC(=O)[C@H](C(C)(C)C)NC(=O)[C@H](CSCC3=O)NC(=O)CNC(=O)[C@H](CC(=O)O)NC(=O)[C@H](Cc2ccc(O)cc2)NC(=O)[C@H](C)NC(=O)[C@H](CC(=O)O)NC(=O)[C@@H]2C[C@@H](O)CN2C(=O)[C@@H]2CCCN2C1=O
# notes: Bicyclic peptide
# Molecular target: T1, Recombinant human His-tagged TfR1 (a.a. 89-760) (ACRO Biosystems, CD1-H5243) (human, UniProt P02786 89-760)
# T1 construct: range 89-760; Bought protein; Captured and amine-coupled on an NTA chip; also called human TfR1; transferrin receptor 1; not shown: His tag (printed 'Hiss-tagged')
# Experiment: SPR (Biacore), TfR1 captured/coupled on NTA chip, peptide as analyte
# T1 sequence (P02786 89-760 limits assumed): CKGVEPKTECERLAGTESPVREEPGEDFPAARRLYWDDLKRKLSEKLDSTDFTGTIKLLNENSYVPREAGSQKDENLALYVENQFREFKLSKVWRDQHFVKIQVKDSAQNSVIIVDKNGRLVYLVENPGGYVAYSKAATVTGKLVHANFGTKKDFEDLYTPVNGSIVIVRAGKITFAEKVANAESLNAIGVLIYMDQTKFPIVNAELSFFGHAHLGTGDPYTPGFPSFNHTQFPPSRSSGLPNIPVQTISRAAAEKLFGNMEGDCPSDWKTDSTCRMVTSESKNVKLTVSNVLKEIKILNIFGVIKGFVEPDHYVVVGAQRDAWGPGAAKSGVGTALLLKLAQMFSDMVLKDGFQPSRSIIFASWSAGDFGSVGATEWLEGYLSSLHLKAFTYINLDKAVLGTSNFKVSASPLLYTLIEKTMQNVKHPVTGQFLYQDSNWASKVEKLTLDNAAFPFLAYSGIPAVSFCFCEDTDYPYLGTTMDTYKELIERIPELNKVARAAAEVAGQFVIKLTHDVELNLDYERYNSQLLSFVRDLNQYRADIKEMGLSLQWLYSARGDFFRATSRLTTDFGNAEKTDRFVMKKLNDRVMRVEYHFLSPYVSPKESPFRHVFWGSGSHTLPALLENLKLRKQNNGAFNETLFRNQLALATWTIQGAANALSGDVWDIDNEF
row,Binder,Kd [nM]
1,B1,117
2,B2,25
3,B3,109
4,B4,8.6
5,B5,85
6,B6,11
7,B7,13
8,B8,7.7
9,B9,58
10,B10,120
11,B11,50
12,B12,158
13,B13,55
14,B14,72
